Legend:
Assay in all cases: SPOT array
Rvs167, P39743 = details: median of control spots 2707
Sla1-2, P32790 = target: T1, Sla1-2, P32790; details: median of control spots 712
T1 sequence (P32790 60-140, looked up): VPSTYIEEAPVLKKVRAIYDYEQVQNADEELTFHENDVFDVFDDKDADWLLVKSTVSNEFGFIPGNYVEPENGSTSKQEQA

Hof1, Q05080 = target: T2, Hof1, Q05080; details: median of control spots 4086
T2 sequence (Q05080 590-669, looked up): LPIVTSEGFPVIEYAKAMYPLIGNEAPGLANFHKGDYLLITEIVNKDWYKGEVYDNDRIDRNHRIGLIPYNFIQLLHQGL

GST = details: median of control spots 978
Sla1-3, P32790 = target: T3, Sla1-3, P32790; details: median of control spots 5475
T3 sequence (P32790 344-424, looked up): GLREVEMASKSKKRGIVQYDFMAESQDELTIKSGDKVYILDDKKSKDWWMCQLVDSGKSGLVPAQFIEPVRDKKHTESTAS

Pex13, P80667 = target: T4, Pex13, P80667; details: median of control spots 1341
T4 sequence (P80667 295-386, looked up): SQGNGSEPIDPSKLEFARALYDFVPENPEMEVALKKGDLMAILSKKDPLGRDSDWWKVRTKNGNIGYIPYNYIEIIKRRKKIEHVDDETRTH

Bzz1-1, P38822 = target: T5, Bzz1-1, P38822; details: median of control spots 4446
T5 sequence (P38822 478-572, looked up): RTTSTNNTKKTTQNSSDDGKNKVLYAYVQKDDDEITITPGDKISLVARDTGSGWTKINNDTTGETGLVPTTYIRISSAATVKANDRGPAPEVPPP

Pin3, Q06449 = target: T6, Pin3, Q06449; details: median of control spots 2171
T6 sequence (Q06449 53-122, looked up): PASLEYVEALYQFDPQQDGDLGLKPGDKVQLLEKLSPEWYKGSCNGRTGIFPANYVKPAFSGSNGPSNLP

Sho1, P40073 = details: median of control spots 1148
Nbp2, Q12163 = target: T7, Nbp2, Q12163; details: median of control spots 357
T7 sequence (Q12163 103-180, looked up): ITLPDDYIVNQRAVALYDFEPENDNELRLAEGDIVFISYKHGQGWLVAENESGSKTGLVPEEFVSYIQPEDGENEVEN

Fus1, P11710 = target: T8, Fus1, P11710; details: median of control spots 1200
T8 sequence (P11710 432-512, looked up): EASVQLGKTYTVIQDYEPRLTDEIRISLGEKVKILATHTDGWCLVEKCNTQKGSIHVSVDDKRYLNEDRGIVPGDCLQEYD

Lsb3, P43603 = target: T9, Lsb3, P43603; details: median of control spots 406
T9 sequence (P43603 385-451, looked up): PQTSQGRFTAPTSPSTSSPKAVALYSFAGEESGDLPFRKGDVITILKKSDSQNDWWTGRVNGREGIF

Hse1, P38753 = target: T10, Hse1, P38753; details: median of control spots 1727
T10 sequence (P38753 208-285, looked up): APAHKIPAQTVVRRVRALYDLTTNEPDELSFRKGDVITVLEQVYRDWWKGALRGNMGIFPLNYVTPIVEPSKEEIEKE

Abp1, P15891 = target: T11, Abp1, P15891; details: median of control spots 935
T11 sequence (P15891 535-592, looked up): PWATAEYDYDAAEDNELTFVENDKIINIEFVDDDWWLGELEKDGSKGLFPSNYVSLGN

Lsb1, P53281 = target: T12, Lsb1, P53281; details: median of control spots 388
T12 sequence (P53281 45-122, looked up): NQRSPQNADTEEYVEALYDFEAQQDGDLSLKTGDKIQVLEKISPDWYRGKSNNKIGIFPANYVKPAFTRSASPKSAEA

Bbc1, P47068 = target: T13, Bbc1, P47068; details: median of control spots 796
T13 sequence (P47068 1-78, looked up): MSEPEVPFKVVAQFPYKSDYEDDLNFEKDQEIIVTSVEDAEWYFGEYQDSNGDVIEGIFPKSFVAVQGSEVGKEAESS

Cdc25, P04821 = target: T14, Cdc25, P04821; details: median of control spots 969
T14 sequence (P04821 50-136, looked up): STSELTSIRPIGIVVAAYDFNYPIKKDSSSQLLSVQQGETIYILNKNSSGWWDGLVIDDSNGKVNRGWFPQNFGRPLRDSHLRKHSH

Boi2, P39969 = target: T15, Boi2, P39969; details: median of control spots 1161
T15 sequence (P39969 32-116, looked up): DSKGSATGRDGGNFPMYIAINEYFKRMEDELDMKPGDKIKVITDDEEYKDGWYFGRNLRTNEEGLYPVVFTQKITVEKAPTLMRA

Boi1, P38041 = target: T16, Boi1, P38041; details: median of control spots 1162
T16 sequence (P38041 1-86, looked up): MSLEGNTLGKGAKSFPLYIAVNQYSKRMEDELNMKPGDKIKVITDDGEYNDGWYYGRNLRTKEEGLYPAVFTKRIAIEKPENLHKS

Bzz1-2, P38822 = target: T17, Bzz1-2, P38822; details: median of control spots 4538
T17 sequence (P38822 568-633, looked up): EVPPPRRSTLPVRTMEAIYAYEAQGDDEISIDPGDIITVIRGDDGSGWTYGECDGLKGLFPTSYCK

Myo5, Q04439 = target: T18, Myo5, Q04439; details: median of control spots 471
T18 sequence (Q04439 1072-1160, looked up): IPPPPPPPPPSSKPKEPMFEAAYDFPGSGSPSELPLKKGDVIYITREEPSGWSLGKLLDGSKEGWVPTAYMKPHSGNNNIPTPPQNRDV

Bem1-2, P29366 = details: median of control spots 4347
Bem1-1, P29366 = details: median of control spots 4282
Cyk3, Q07533 = target: T19, Cyk3, Q07533; details: median of control spots 1451
T19 sequence (Q07533 1-83, looked up): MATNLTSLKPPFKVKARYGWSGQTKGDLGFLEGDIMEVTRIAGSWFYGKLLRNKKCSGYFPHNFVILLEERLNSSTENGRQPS

Myo3, P36006 = details: median of control spots 468
Bud14, P27637 = target: T20, Bud14, P27637; details: median of control spots 956
T20 sequence (P27637 247-328, looked up): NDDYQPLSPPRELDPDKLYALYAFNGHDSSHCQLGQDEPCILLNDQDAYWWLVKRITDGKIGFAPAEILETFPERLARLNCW

Lsb4, P32793 = target: T21, Lsb4, P32793; details: median of control spots 397
T21 sequence (P32793 402-468, looked up): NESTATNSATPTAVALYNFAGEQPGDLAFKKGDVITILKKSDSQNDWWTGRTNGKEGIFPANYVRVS

Sequence of Rvs167, P39743 (P39743 419-482): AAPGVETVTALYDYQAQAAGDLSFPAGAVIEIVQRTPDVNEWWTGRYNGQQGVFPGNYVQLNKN
Sequence of Sho1, P40073 (P40073 287-367): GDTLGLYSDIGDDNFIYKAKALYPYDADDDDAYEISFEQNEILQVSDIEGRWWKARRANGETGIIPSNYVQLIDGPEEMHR
Sequence of Bem1-1, P29366 (P29366 55-141): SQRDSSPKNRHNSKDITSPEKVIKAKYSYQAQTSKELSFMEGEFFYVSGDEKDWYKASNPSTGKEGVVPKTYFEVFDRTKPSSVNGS
Sequence of Bem1-2, P29366 (P29366 139-227): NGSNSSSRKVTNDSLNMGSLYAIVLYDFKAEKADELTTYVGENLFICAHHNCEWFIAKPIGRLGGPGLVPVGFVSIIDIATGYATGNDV

Row | Binder | SPOT intensity (Rvs167, P39743) | SPOT intensity (Sla1-2, P32790) | SPOT intensity (Hof1, Q05080) | SPOT intensity (GST) | SPOT intensity (Sla1-3, P32790) | SPOT intensity (Pex13, P80667) | SPOT intensity (Bzz1-1, P38822) | SPOT intensity (Pin3, Q06449) | SPOT intensity (Sho1, P40073) | SPOT intensity (Nbp2, Q12163) | SPOT intensity (Fus1, P11710) | SPOT intensity (Lsb3, P43603) | SPOT intensity (Hse1, P38753) | SPOT intensity (Abp1, P15891) | SPOT intensity (Lsb1, P53281) | SPOT intensity (Bbc1, P47068) | SPOT intensity (Cdc25, P04821) | SPOT intensity (Boi2, P39969) | SPOT intensity (Boi1, P38041) | SPOT intensity (Bzz1-2, P38822) | other results
1 | PPLPRAPPVPPATFE | 0 | 1 | 183 | 0 | 1 | 14 | 2 | 0 | 9 | 2 | 0 | 0 | 0 | 27 | 7 | 3 | 1 | 0 | 1 | 4 | SPOT intensity (Myo5, Q04439): 137; SPOT intensity (Bem1-2, P29366): 59; SPOT intensity (Bem1-1, P29366): 2; SPOT intensity (Cyk3, Q07533): 0; SPOT intensity (Myo3, P36006): 269; SPOT intensity (Bud14, P27637): 0; SPOT intensity (Lsb4, P32793): 0
2 | VNIPSPSSSPPPIPK | 0 | 0 | 0 | 0 | 3 | 0 | 1 | 0 | 0 | 2 | 0 | 0 | 8 | 1 | 0 | 0 | 0 | 0 | 0 | 0 | SPOT intensity (Myo5, Q04439): 529; SPOT intensity (Bem1-2, P29366): 49; SPOT intensity (Bem1-1, P29366): 0; SPOT intensity (Cyk3, Q07533): 0; SPOT intensity (Myo3, P36006): 464; SPOT intensity (Bud14, P27637): 1; SPOT intensity (Lsb4, P32793): 0
3 | LPPPPPPPPPPPLPQ | 0 | 0 | 1 | 0 | 4 | 3 | 3 | 0 | 0 | 0 | 0 | 0 | 0 | 0 | 0 | 0 | 1 | 0 | 1 | 0 | SPOT intensity (Myo5, Q04439): 325; SPOT intensity (Bem1-2, P29366): 6; SPOT intensity (Bem1-1, P29366): 0; SPOT intensity (Cyk3, Q07533): 1; SPOT intensity (Myo3, P36006): 230; SPOT intensity (Bud14, P27637): 0; SPOT intensity (Lsb4, P32793): 0
4 | PPPPPPPPPPLPQSL | 0 | 0 | 5 | 1 | 6 | 28 | 5 | 0 | 0 | 0 | 0 | 0 | 0 | 0 | 0 | 0 | 0 | 0 | 0 | 2 | SPOT intensity (Myo5, Q04439): 263; SPOT intensity (Bem1-2, P29366): 1; SPOT intensity (Bem1-1, P29366): 0; SPOT intensity (Cyk3, Q07533): 1; SPOT intensity (Myo3, P36006): 275; SPOT intensity (Bud14, P27637): 0; SPOT intensity (Lsb4, P32793): 0
